Measurements published in US20210317201A1 (Boehringer Ingelheim, published 2021).
Values joined by “and” are separate entries in the source; they are usually repeats but may differ in a detail not shown here. Identical values can stand only once.

T1: recombinant human IL-23 (human, UniProt P29460 23-328)
T1 sequence 1: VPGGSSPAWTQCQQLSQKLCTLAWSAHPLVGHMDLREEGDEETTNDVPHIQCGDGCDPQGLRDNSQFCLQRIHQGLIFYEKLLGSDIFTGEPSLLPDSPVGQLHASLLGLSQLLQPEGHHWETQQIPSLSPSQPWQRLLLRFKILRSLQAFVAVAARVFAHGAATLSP
T1 sequence 2: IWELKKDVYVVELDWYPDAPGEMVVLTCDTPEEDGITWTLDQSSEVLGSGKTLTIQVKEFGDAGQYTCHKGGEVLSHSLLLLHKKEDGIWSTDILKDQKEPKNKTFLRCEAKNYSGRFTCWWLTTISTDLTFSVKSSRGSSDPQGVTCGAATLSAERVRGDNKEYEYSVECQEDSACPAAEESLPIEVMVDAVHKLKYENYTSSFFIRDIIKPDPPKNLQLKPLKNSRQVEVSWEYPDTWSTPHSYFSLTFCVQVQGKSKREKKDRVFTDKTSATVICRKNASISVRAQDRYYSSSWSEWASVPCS

T2: natural human IL-23 from activated THP-1 cells (human, UniProt P29460 23-328)
T2 sequence 1: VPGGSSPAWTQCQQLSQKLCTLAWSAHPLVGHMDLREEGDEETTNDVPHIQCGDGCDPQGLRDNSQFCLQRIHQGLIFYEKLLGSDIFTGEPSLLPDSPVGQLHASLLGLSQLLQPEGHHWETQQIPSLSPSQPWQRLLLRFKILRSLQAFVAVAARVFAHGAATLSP
T2 sequence 2: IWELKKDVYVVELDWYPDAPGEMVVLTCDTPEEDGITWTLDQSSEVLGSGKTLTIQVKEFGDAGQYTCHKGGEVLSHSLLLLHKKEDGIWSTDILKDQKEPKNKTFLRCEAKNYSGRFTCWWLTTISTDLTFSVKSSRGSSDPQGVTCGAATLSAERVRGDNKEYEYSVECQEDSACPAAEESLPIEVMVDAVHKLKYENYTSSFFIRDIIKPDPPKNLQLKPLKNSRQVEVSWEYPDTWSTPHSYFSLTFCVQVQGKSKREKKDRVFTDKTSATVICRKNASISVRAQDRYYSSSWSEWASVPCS


What was measured:
[1] = target: T1, recombinant human IL-23; assay: cell-based or functional assay
[2] = target: T1, recombinant human IL-23; assay: BLI, Fortebio Octet; hybridoma-derived antibody
Procedure: Kinetics and binding affinities were measured using the Fortebio OCTET® (Fortebio, Menlo Park, Calif.) using material generated from hybridoma following single column purification.

[3] = target: T2, natural human IL-23 from activated …; assay: cell-based or functional assay

IC50, IL-23 stimulated IL-17 production from mouse splenocytes [1] | Kd [2] | koff [2] | kon [2] | IC50, IL-23 stimulated IL-17 production from mouse splenocytes [3] | Binder
0.404 nM | – | – | – | 0.095 nM and 0.102 nM | Chimeric 24A5 (antibody, V domains shown) VH: EVQLQQSGPELVKPGASVKMSCKASGYTFTTSIMHWVKQKPGQGLEWIGYINPYDDVTKYNEKFKGKATLTSDKSSSTAYMELSSLTSEDSAVYYCVRRWDEAYWGQGTLVTVSA VL: DIVMTQSPATLSVTPGNRVSLSCRASQSISDYLHWYQQKSHESPRLLIKYASQSISGIPSRFSGSGSGSNFTLSINSVEPEDVGVYYCQNGHSFPFTFGSGTKLEIK
0.1 nM | – | – | – | – | Chimeric 22E2 (antibody, V domains shown) VH: EVQLQQSGPELVKPGASVKMSCKASGYTFTSSIIHWVKQRPGQGLEWIGYINPYDDVTKYNEKFKGKATLTSDKSSSTAYMELSSLTSEDSAVYYCARRWDESYWGQGTLVTVSA VL: DIVMTQSPATLSVTPGDRVSLSCRASQSISVYLHWYQQKSPESPRLLIKYASQSISGIPSRFSGSGSGSDFTLSINSVEPEDVGVYYCQNGHSFPFTFGSGTKLEIK
0.234 nM | 0.00678 nM | 2.16e-06 s⁻¹ | 319000 M⁻¹ s⁻¹ | – | 18D3 (antibody, V domains shown, Mouse monoclonal antibody from hybridoma; also called 18D3vk; 18D3vh) VH: EVQLQQSGPELVKPGASVKMSCKASGYTFTRYLIHWVKQKPGQGLEWIGYINPYNDGTKYNEKFKGKATLTSDKSSSTAYMELSSLTSEDSAVYYCTSNWDLDYWGQGTTLTVSS VL: DIVMTQSPATLSVTPGDRVSLSCRASQSISDYLYWYQQKSHESPRLLIKFASQSISGIPSRFTGSGSGSDFTLSIDSVEPDDVGVFFCQNGHSFPFTFGGGTKLEIK
0.027 nM | 0.0281 nM | 1.34e-05 s⁻¹ | 476000 M⁻¹ s⁻¹ | – | 26F7 (antibody, V domains shown, Mouse monoclonal antibody from hybridoma; also called 26F7Vk; 26F7VH) VH: EVQLQQSGPELVKPGASVKISCKASGYTFTDYYMNWVRQSHGESLEWIGDFNHNNDVITYNPKFKGKVTLTVEKSSTTAYMELRSLSSEDSAVYYCARGLRGYYAMDYWGQGTSVTVSS VL: DIVLTQSPASLAVSLGQRATISCRASKSVRFSDYFYMHWYQQKPGQPPKLLIYLASNLESGVPARFSGSGSGTDFTLNIHPVEEEDAATYYCQNSRELPYTFGGGTKLEIK
– | < 0.001 nM | < 1e-06 s⁻¹ | – | 2.34 nM and 1.91 nM and 1.6 nM | 2D1 (antibody, V domains shown, Mouse monoclonal antibody from hybridoma; also called 2D1vk; 2D1vh) VH: QVQLKESGPGLVAPSQSLSITCTVSGFSLTTYAISWVRQSPGKGLEWLGVIWTGGGTKYNSALKSRLSISKDNSKSQVFLKMNSLQTDDTARYYCARKDYNYGGAMDYWGQGTSVTVSS VL: DIVLTQSPGSLAVSLGQRATISCRTSESVYSYGQNFIHWYQQKPGQPPKLLIYRASNLESGIPARFSGSGSRTDFTLTMNPVEADDVATYYCQQTNEDPYTFGGGTKLEIR
1.41 nM | 0.0992 nM | 5.24e-06 s⁻¹ | 52900 M⁻¹ s⁻¹ | – | 73H10 (antibody, V domains shown, Mouse monoclonal antibody from hybridoma; also called 73H10Vk; 73H10VH) VH: EVQLQQSGPELVKPGASVKMSCKASGYTFTRYVMHWVKQKPGQGLEWIGYINPYNDVTKYNEKFKGKATLTSDRSSSTAYMKLSSLTSEDSAVYYCARNWDVPYWGQGTLITVSA VL: DIQMTQSPVFLSASVGETVTITCRASENIDSYLAWYQQKQGKSPQLLVFAARNLADGVPSRFSGSGSGTQYSLKINRMQSEDVARYYCQHYYSTPFTFGSGTKLEIE

Further lines, the binder ahead of its results:

Binder | IC50, IL-23 stimulated IL-17 production from mouse splenocytes [1] | Kd [2] | koff [2] | kon [2] | IC50, IL-23 stimulated IL-17 production from mouse splenocytes [3]
18C4 (antibody, V domains shown, Mouse monoclonal antibody from hybridoma; also called 18C4vk; 18C4vh) VH: EVQLQQSGPEVVKPGASVKMSCKASGYTFTSSVIHWVKQKAGQGLEWIGYINPYNDGTKYNEKFKGKATLTSDRSSSTAYMELSSLTSEDSAVYYCTRRLDEAYWGQGTLVTVSA VL: DIVMTQSPATLSVTPGDRVSLSCRASQSISEYLHWYQQKSHESPRLLIKYASQSISGIPSRFSGSGSGSDFTLSINSVEPEDVGVYYCQNGHSFPFTFGSGTKLEIK | 0.471 nM | 0.00557 nM | 2.14e-06 s⁻¹ | 384000 M⁻¹ s⁻¹ | –
24A5 (antibody, V domains shown, Mouse monoclonal antibody from hybridoma; also called 24A54vk; 24A5vh) VH: EVQLQQSGPELVKPGASVKMSCKASGYTFTTSIMHWVKQKPGQGLEWIGYINPYDDVTKYNEKFKGKATLTSDKSSSTAYMELSSLTSEDSAVYYCVRRWDEAYWGQGTLVTVSA VL: DIVMTQSPATLSVTPGNRVSLSCRASQSISDYLHWYQQKSHESPRLLIKYASQSISGIPSRFSGSGSGSNFTLSINSVEPEDVGVYYCQNGHSFPFTFGSGTKLEIK | 0.022 nM and 0.037 nM | 0.0226 nM | 4.57e-06 s⁻¹ | 202000 M⁻¹ s⁻¹ | 0.085 nM and 0.031 nM
18E5 (antibody, V domains shown, Mouse monoclonal antibody from hybridoma; also called 18E5vk; 18E5vh) VH: EVQLQQSGPELVKPGAAVKMSCKASGYTFTRYLIHWVKQKPGQGLEWIGYINPYNDGTKYNEKFKGKATLTSDKSSSTAYMELSSLTSEDSAVYYCTSNWDLDYWGQGTTLTVSS VL: DIVMTQSPATLSVTPGDRVSLSCRASQSISDYLYWYQQKSHESPRLLIKFASQSISGIPSRFTGSGSGSDFTLSIDSVEPDDVGVFFCQNGHSFPFTFGGGTKLEIK | – | 0.00793 nM | 2.61e-06 s⁻¹ | 329000 M⁻¹ s⁻¹ | 0.009 nM and 0.013 nM
31H9 (antibody, V domains shown, Mouse monoclonal antibody from hybridoma; also called 31H9vk; 31H9vh) VH: EVQLQQSGPELVKPGASVKMSCKASGYTFTRYLMHWVKQKPGQGLEWIGYINPYNDGTNYNEKFKGKATLTSDKSSSTAYMELSSLTSEDSAVYYCSLNWDYAYWGQGTLVTVSA VL: DIVMTQSPATLSVTPGDRVSLSCRASQSISDYLHWYQQKSHESPRLLIKYASQSISGIPSRFSGSGSGSDFTLSINSVEPEDVGVYYCQNGHSFPYTFGGGTKLEIK | 0.96 nM | 0.0115 nM | 3.45e-06 s⁻¹ | 299000 M⁻¹ s⁻¹ | 2 nM
22E2 (antibody, V domains shown, Mouse monoclonal antibody from hybridoma; also called 22E2vk; 22E2vh) VH: EVQLQQSGPELVKPGASVKMSCKASGYTFTSSIIHWVKQRPGQGLEWIGYINPYDDVTKYNEKFKGKATLTSDKSSSTAYMELSSLTSEDSAVYYCARRWDESYWGQGTLVTVSA VL: DIVMTQSPATLSVTPGDRVSLSCRASQSISVYLHWYQQKSPESPRLLIKYASQSISGIPSRFSGSGSGSDFTLSINSVEPEDVGVYYCQNGHSFPFTFGSGTKLEIK | 0.061 nM and 0.13 nM | 1.02 nM | 0.000353 s⁻¹ | 346000 M⁻¹ s⁻¹ | –
20E8 (antibody, V domains shown, Mouse monoclonal antibody from hybridoma; also called 20E8vk; 20E8vh) VH: EVQLQQSGPELVKPGASVKMSCKASGYTFTSSVMHWVKQKAGQGLEWIGYINPYNDGTQYNEKFKGKATLTSDKFSSTAYMELSSLTSEDSAVYYCTRRLDEAYWGQGTLVTVSA VL: DIVMTQSPATLSVTPGDRVSLSCRASQSISEYLHWYQQKSHESPRLLIKYASQSISGIPSRFSGSGSGSDFTLSINSVEPEDVGVYYCQNGHSFPFTFGSGTKLEIK | – | 0.638 nM | 0.000269 s⁻¹ | 421000 M⁻¹ s⁻¹ | 0.438 nM and 0.561 nM
27G8 (antibody, V domains shown, Mouse monoclonal antibody from hybridoma; also called 27G8vk; 27G8vh) VH: QVQLQQSDAELVKPGASVKISCKVSGYTFTDHTIHWMKQRPEQGLEWIGYIYPRDGYPKFNEKFKGKATLTADKSSSTAYMQLNSLTSEDSAVYFCARRPPYYAMDYWGQGTSVAVSS VL: DIVLTQSPASLAVSLGQRATISCRASKSVSTSGYSYIHWYQQKPGQPPKFLIYLASNLDSGVPARFSGSGSGTDFTLNIHPVEEEDAATYYCQHSRELPYTFGGGTKLEIK | 0.235 nM | 0.0272 nM | 4.26e-06 s⁻¹ | 157000 M⁻¹ s⁻¹ | 5 nM
15C11 (antibody, V domains shown, Mouse monoclonal antibody from hybridoma; also called 15C11vk; 15C11vh) VH: EVQLQQSGPVLVKPGASVKMSCKASGYTFTDYYMNWVKQSHGKSLEWIGVIIPYNGGTSYNQKFKGKATLTVDKSSSTAYMELNSLTSEDSAVYYCARDGHRWYFDVWGTGTTVTVSS VL: DVVMTQTPLSLPVSLGDQASISCRSSQSLVHSNGNTYLHWYLQKPGQSPKLLIYKVSNRFSGVPDRFSGSGSGTDFTLKINRVEAEDLGVYFCSQSTHVPYTFGGGTQLEIK | 0.126 nM | 0.026 nM | 1.07e-05 s⁻¹ | 411000 M⁻¹ s⁻¹ | 0.232 nM
43F5 (antibody, V domains shown, Mouse monoclonal antibody from hybridoma; also called 43F5vk; 43F5vh) VH: EVQLQQSGPELVKPGASVKISCRASGYSFTGYYMNWVKQSPEKSLEWIGEIIPTTGGTSYNQKFKAKATLTVDKSSSTAYMQLKSLTSEDSAVYYCARESGGFYWYFDVWGTGTTVTVSS VL: DVVMTQSPLSLPVSLGDQASISCRSSQSLVHSNGNTYLHWYLLKPGQSPKLLIYKVSNRFSGVPDRFSGSGSGTDFTLKISRVEAEDLGVYFCSQSTHVPYTFGGGTKLEIK | – | 0.0346 nM | 5.96e-06 s⁻¹ | 172000 M⁻¹ s⁻¹ | 8 nM
74H3 (antibody, V domains shown, Mouse monoclonal antibody from hybridoma; also called 74H3Vk; 74H3VH) VH: EVQLQQSGPELVKPGASVKMSCKASGYTFTRYLMHWVKQKPGQGLEWIGYINPYNDGTKYNERFKGKATLTSDKSSSTAYMELSSLTSEDSAVYYCARNWDVPYWGQGTLVTVSA VL: DIQMTQSPASLSASVGETVIFTCRASENIDSYLAWYQQKQGKSPQLLVYAATNLADGVPSRFSGSGSGTQYSLKINSLQSEDVARYYCLHYYSTPFTFGSGTELEIK | 1.35 nM | 0.0683 nM | 2.09e-06 s⁻¹ | 30600 M⁻¹ s⁻¹ | –
